Measured values reported in publication PMC8827073, “Topological and enzymatic analysis of human Alg2 mannosyltransferase reveals its role in lipid-linked oligosaccharide biosynthetic pathway” (Communications Biology, 2022).

Substrate: CC(=O)N[C@H]1[C@H](O[C@H]2[C@H](O)[C@@H](NC(C)=O)[C@@H](OP(=O)(O)OP(=O)(O)OCCC(C)CCCC(C)CCCC(C)CCCC(C)C)O[C@@H]2CO)O[C@H](CO)[C@@H](O[C@@H]2O[C@H](CO[C@H]3O[C@H](CO)[C@@H](O)[C@H](O)[C@@H]3O)[C@@H](O)[C@H](O)[C@@H]2O)[C@@H]1O
Assay: UPLC-MS mannosyltransferase assay, nonlinear regression
Format: biochemical, Homo sapiens
Settings: 2 mM GDP-Man, 10 mM MgCl2, pH 6.0, 0.05% NP-40, 37 °C, 10 min, substrate range 8-200 μM, substrate not further purified

B1: hAlg2 (Trx-hAlg2) (Homo sapiens) (protein)
chain: MAEEQGRERDSVPKPSVLFLHPDLGVGGAERLVLDAALALQARGCSVKIWTAHYDPGHCFAESRELPVRCAGDWLPRGLGWGGRGAAVCAYVRMVFLALYVLFLADEEFDVVVCDQVSACIPVFRLARRRKKILFYCHFPDLLLTKRDSFLKRLYRAPIDWIEEYTTGMADCILVNSQFTAAVFKETFKSLSHIDPDVLYPSLNVTSFDSVVPEKLDDLVPKGKKFLLLSINRYERKKNLTLALEALVQLRGRLTSQDWERVHLIVAGGYDERVLENVEHYQELKKMVQQSDLGQYVTFLRSFSDKQKISLLHSCTCVLYTPSNEHFGIVPLEAMYMQCPVIAVNSGGPLESIDHSVTGFLCEPDPVHFSEAIEKFIREPSLKATMGLAGRARVKEKFSPEAFTEQLYRYVTKLLV
notes: N-terminal His6-Trx tag kept (pET32), expressed in E. coli Rosetta (DE3), HisTrap purified; about 57 kDa on SDS-PAGE
  Km: 136.7 ± 30.4 µM
  kcat: 1.05 ± 0.13 s⁻¹
